Square brackets hold non-standard residues; d marks the D form. Aib = CC(C)(N)C(=O)O
T1: human GLP-2 receptor (hGLP2-R) (human, UniProt O95838)
T1 sequence: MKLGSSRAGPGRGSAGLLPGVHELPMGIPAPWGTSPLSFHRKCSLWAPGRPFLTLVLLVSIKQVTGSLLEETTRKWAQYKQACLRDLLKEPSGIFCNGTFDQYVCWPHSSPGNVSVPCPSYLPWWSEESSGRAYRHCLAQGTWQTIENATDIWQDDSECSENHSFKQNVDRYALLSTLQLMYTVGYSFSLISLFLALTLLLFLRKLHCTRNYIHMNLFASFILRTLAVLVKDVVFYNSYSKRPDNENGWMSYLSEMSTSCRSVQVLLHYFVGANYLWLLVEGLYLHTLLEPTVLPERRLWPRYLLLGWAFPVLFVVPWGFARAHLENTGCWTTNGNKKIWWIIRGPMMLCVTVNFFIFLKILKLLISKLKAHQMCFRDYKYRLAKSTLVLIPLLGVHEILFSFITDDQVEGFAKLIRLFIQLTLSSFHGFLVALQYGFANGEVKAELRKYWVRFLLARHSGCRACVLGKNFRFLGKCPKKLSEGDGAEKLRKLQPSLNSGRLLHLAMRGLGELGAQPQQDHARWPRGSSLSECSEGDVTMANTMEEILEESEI


Columns and labels:
[1] = target: T1, human GLP-2 receptor (hGLP2-R); experiment: cell-based or functional assay
[2] = target: human glucagon-like peptide 1 receptor (GLP-1R) (human, UniProt P43220); experiment: cell-based or functional assay

Binder	EC50 GLP-2 (nM); cAMP AlphaScreen [1]	EC50 GLP-1 (nM); cAMP AlphaScreen [2]
H-H[Aib]EGTFTSELATILDEQAARDFIAWLQAQKITD-OH (SMILES CC[C@H](C)[C@H](NC(=O)[C@H](Cc1ccccc1)NC(=O)[C@H](CC(=O)O)NC(=O)[C@H](CCCNC(=N)N)NC(=O)[C@H](C)NC(=O)[C@H](C)NC(=O)[C@H](CCC(N)=O)NC(=O)[C@H](CCC(=O)O)NC(=O)[C@H](CC(=O)O)NC(=O)[C@H](CC(C)C)NC(=O)[C@@H](NC(=O)[C@@H](NC(=O)[C@H](C)NC(=O)[C@H](CC(C)C)NC(=O)[C@H](CCC(=O)O)NC(=O)[C@H](CO)NC(=O)[C@@H](NC(=O)[C@H](Cc1ccccc1)NC(=O)[C@@H](NC(=O)CNC(=O)[C@H](CCC(=O)O)NC(=O)C(C)(C)NC(=O)[C@@H](N)Cc1c[nH]cn1)[C@@H](C)O)[C@@H](C)O)[C@@H](C)O)[C@@H](C)CC)C(=O)N[C@@H](C)C(=O)N[C@@H](Cc1c[nH]c2ccccc12)C(=O)N[C@@H](CC(C)C)C(=O)N[C@@H](CCC(N)=O)C(=O)N[C@@H](C)C(=O)N[C@@H](CCC(N)=O)C(=O)N[C@@H](CCCCN)C(=O)N[C@H](C(=O)N[C@H](C(=O)N[C@@H](CC(=O)O)C(=O)O)[C@@H](C)O)[C@@H](C)CC) [Compound 26]	0.19 nM	0.013 nM
H-H[Aib]EGSFTSELATILDEQAARDFIAWLQAHKITD-OH (SMILES CC[C@H](C)[C@H](NC(=O)[C@H](Cc1ccccc1)NC(=O)[C@H](CC(=O)O)NC(=O)[C@H](CCCNC(=N)N)NC(=O)[C@H](C)NC(=O)[C@H](C)NC(=O)[C@H](CCC(N)=O)NC(=O)[C@H](CCC(=O)O)NC(=O)[C@H](CC(=O)O)NC(=O)[C@H](CC(C)C)NC(=O)[C@@H](NC(=O)[C@@H](NC(=O)[C@H](C)NC(=O)[C@H](CC(C)C)NC(=O)[C@H](CCC(=O)O)NC(=O)[C@H](CO)NC(=O)[C@@H](NC(=O)[C@H](Cc1ccccc1)NC(=O)[C@H](CO)NC(=O)CNC(=O)[C@H](CCC(=O)O)NC(=O)C(C)(C)NC(=O)[C@@H](N)Cc1c[nH]cn1)[C@@H](C)O)[C@@H](C)O)[C@@H](C)CC)C(=O)N[C@@H](C)C(=O)N[C@@H](Cc1c[nH]c2ccccc12)C(=O)N[C@@H](CC(C)C)C(=O)N[C@@H](CCC(N)=O)C(=O)N[C@@H](C)C(=O)N[C@@H](Cc1c[nH]cn1)C(=O)N[C@@H](CCCCN)C(=O)N[C@H](C(=O)N[C@H](C(=O)N[C@@H](CC(=O)O)C(=O)O)[C@@H](C)O)[C@@H](C)CC) [Compound 24]	0.049 nM	0.042 nM
H-H[Aib]EGSFTSELATILDEQAARDFIAWLIAHKITD-OH (SMILES CC[C@H](C)[C@H](NC(=O)[C@H](CC(C)C)NC(=O)[C@H](Cc1c[nH]c2ccccc12)NC(=O)[C@H](C)NC(=O)[C@@H](NC(=O)[C@H](Cc1ccccc1)NC(=O)[C@H](CC(=O)O)NC(=O)[C@H](CCCNC(=N)N)NC(=O)[C@H](C)NC(=O)[C@H](C)NC(=O)[C@H](CCC(N)=O)NC(=O)[C@H](CCC(=O)O)NC(=O)[C@H](CC(=O)O)NC(=O)[C@H](CC(C)C)NC(=O)[C@@H](NC(=O)[C@@H](NC(=O)[C@H](C)NC(=O)[C@H](CC(C)C)NC(=O)[C@H](CCC(=O)O)NC(=O)[C@H](CO)NC(=O)[C@@H](NC(=O)[C@H](Cc1ccccc1)NC(=O)[C@H](CO)NC(=O)CNC(=O)[C@H](CCC(=O)O)NC(=O)C(C)(C)NC(=O)[C@@H](N)Cc1c[nH]cn1)[C@@H](C)O)[C@@H](C)O)[C@@H](C)CC)[C@@H](C)CC)C(=O)N[C@@H](C)C(=O)N[C@@H](Cc1c[nH]cn1)C(=O)N[C@@H](CCCCN)C(=O)N[C@H](C(=O)N[C@H](C(=O)N[C@@H](CC(=O)O)C(=O)O)[C@@H](C)O)[C@@H](C)CC) [Compound 1]	0.036 nM	0.014 nM
H-H[Aib]EGSFTSELATILDEQAARDFIAWLYEHKITD-OH (SMILES CC[C@H](C)[C@H](NC(=O)[C@H](Cc1ccccc1)NC(=O)[C@H](CC(=O)O)NC(=O)[C@H](CCCNC(=N)N)NC(=O)[C@H](C)NC(=O)[C@H](C)NC(=O)[C@H](CCC(N)=O)NC(=O)[C@H](CCC(=O)O)NC(=O)[C@H](CC(=O)O)NC(=O)[C@H](CC(C)C)NC(=O)[C@@H](NC(=O)[C@@H](NC(=O)[C@H](C)NC(=O)[C@H](CC(C)C)NC(=O)[C@H](CCC(=O)O)NC(=O)[C@H](CO)NC(=O)[C@@H](NC(=O)[C@H](Cc1ccccc1)NC(=O)[C@H](CO)NC(=O)CNC(=O)[C@H](CCC(=O)O)NC(=O)C(C)(C)NC(=O)[C@@H](N)Cc1c[nH]cn1)[C@@H](C)O)[C@@H](C)O)[C@@H](C)CC)C(=O)N[C@@H](C)C(=O)N[C@@H](Cc1c[nH]c2ccccc12)C(=O)N[C@@H](CC(C)C)C(=O)N[C@@H](Cc1ccc(O)cc1)C(=O)N[C@@H](CCC(=O)O)C(=O)N[C@@H](Cc1c[nH]cn1)C(=O)N[C@@H](CCCCN)C(=O)N[C@H](C(=O)N[C@H](C(=O)N[C@@H](CC(=O)O)C(=O)O)[C@@H](C)O)[C@@H](C)CC) [Compound 23]	0.034 nM	0.12 nM
H-H[Aib]EGSFTSELATILDEQAARDFIAWLIAQKITD-OH (SMILES CC[C@H](C)[C@H](NC(=O)[C@H](CC(C)C)NC(=O)[C@H](Cc1c[nH]c2ccccc12)NC(=O)[C@H](C)NC(=O)[C@@H](NC(=O)[C@H](Cc1ccccc1)NC(=O)[C@H](CC(=O)O)NC(=O)[C@H](CCCNC(=N)N)NC(=O)[C@H](C)NC(=O)[C@H](C)NC(=O)[C@H](CCC(N)=O)NC(=O)[C@H](CCC(=O)O)NC(=O)[C@H](CC(=O)O)NC(=O)[C@H](CC(C)C)NC(=O)[C@@H](NC(=O)[C@@H](NC(=O)[C@H](C)NC(=O)[C@H](CC(C)C)NC(=O)[C@H](CCC(=O)O)NC(=O)[C@H](CO)NC(=O)[C@@H](NC(=O)[C@H](Cc1ccccc1)NC(=O)[C@H](CO)NC(=O)CNC(=O)[C@H](CCC(=O)O)NC(=O)C(C)(C)NC(=O)[C@@H](N)Cc1c[nH]cn1)[C@@H](C)O)[C@@H](C)O)[C@@H](C)CC)[C@@H](C)CC)C(=O)N[C@@H](C)C(=O)N[C@@H](CCC(N)=O)C(=O)N[C@@H](CCCCN)C(=O)N[C@H](C(=O)N[C@H](C(=O)N[C@@H](CC(=O)O)C(=O)O)[C@@H](C)O)[C@@H](C)CC) [Compound 25]	0.062 nM	0.008 nM

More lines, now with the values ahead:

EC50 GLP-2 (nM); cAMP AlphaScreen [1]	EC50 GLP-1 (nM); cAMP AlphaScreen [2]	Binder
0.034 nM	0.1 nM	H-H[Aib]EGSFTSELATILDEQAARDFIAWLYRHKITD-OH (not fully specified; printed as Hy-H[Aib]EGSFTSELATILDEQAARDFIAWLYRHKITD-OH) [Compound 30]
0.11 nM	0.044 nM	H-H[Aib]EGTFTDELATILDEQAARDFIAWLQAQKITD-OH (not fully specified; printed as Hy-H[Aib]EGTFTDELATILDEQAARDFIAWLQAQKITD-OH) [Compound 29]
0.024 nM	0.11 nM	H-H[Aib]EGSFTSELATILDEQAARDFIAWLYAHKITD-OH (SMILES CC[C@H](C)[C@H](NC(=O)[C@H](Cc1ccccc1)NC(=O)[C@H](CC(=O)O)NC(=O)[C@H](CCCNC(=N)N)NC(=O)[C@H](C)NC(=O)[C@H](C)NC(=O)[C@H](CCC(N)=O)NC(=O)[C@H](CCC(=O)O)NC(=O)[C@H](CC(=O)O)NC(=O)[C@H](CC(C)C)NC(=O)[C@@H](NC(=O)[C@@H](NC(=O)[C@H](C)NC(=O)[C@H](CC(C)C)NC(=O)[C@H](CCC(=O)O)NC(=O)[C@H](CO)NC(=O)[C@@H](NC(=O)[C@H](Cc1ccccc1)NC(=O)[C@H](CO)NC(=O)CNC(=O)[C@H](CCC(=O)O)NC(=O)C(C)(C)NC(=O)[C@@H](N)Cc1c[nH]cn1)[C@@H](C)O)[C@@H](C)O)[C@@H](C)CC)C(=O)N[C@@H](C)C(=O)N[C@@H](Cc1c[nH]c2ccccc12)C(=O)N[C@@H](CC(C)C)C(=O)N[C@@H](Cc1ccc(O)cc1)C(=O)N[C@@H](C)C(=O)N[C@@H](Cc1c[nH]cn1)C(=O)N[C@@H](CCCCN)C(=O)N[C@H](C(=O)N[C@H](C(=O)N[C@@H](CC(=O)O)C(=O)O)[C@@H](C)O)[C@@H](C)CC) [Compound 28]
0.37 nM	0.12 nM	H-H[Aib]EGTFTSELSTILDEQAARDFIAWLHAQKITD-OH (not fully specified; printed as Hy-H[Aib]EGTFTSELSTILDEQAARDFIAWLHAQKITD-OH) [Compound 27]

From patent US11130793B2, “GLP-1/GLP-2 dual agonists” (Zealand Pharma A/S, priority 2016, dated 2021)
